Test results from paper PMC4752478, “Probing the Catalytic Mechanism of Vibrio harveyi GH20 β-N-Acetylglucosaminidase by Chemical Rescue” (PLoS ONE, 2016).
Where a name gives a salt, the structure may show the parent alone.

Experiments:
[1] = test system: CC(=O)N[C@H]1[C@H](Oc2ccc([N+](=O)[O-])cc2)O[C@H](CO)[C@@H](O)[C@@H]1O; test: purified protein; conditions: no sodium formate, 100 mM sodium phosphate pH 7.0, 37°C
[2] = biological target: T1, VhGlcNAcase (Vibrio harveyi, UniProt D9ISE0); test: biochemical; conditions: read-out: Specific activity (nmol/min/μg) / 1 M HCOONa
T1 sequence (D9ISE0 1-642): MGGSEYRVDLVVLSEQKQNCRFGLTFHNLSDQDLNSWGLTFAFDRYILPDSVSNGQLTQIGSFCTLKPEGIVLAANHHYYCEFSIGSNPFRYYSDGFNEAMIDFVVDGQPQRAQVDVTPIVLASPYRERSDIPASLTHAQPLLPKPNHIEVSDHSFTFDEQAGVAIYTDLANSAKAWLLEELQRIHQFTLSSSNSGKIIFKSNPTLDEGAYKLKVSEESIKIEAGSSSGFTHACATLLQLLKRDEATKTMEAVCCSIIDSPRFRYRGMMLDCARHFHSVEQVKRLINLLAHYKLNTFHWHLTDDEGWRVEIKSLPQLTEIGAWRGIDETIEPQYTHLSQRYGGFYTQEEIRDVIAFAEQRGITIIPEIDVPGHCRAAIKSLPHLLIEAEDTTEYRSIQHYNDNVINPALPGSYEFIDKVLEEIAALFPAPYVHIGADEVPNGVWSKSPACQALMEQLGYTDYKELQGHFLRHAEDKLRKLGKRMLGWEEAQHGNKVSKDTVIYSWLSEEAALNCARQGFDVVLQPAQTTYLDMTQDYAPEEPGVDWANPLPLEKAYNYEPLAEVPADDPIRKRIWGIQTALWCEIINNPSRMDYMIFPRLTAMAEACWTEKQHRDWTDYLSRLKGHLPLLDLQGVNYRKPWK

In the case of VhGlcNAcase (Vibrio harveyi; D437A), the Km [1] is reported as 390 ± 32 µM, the kcat [1] is reported as 0.14 ± 0.01 s⁻¹ and the kcat/Km [1] is reported as 360 M⁻¹ s⁻¹.
With `O=CO` [sodium formate] the activity at 1 M [2] was 80%.
